Experimental data published in patent publication US20110223615A1.

Tests used:
Assay in all cases: cell-based or functional assay
[1] = target: ADA (envelope of the HIV-1 pseudovirus) (HIV-1)
[2] = target: SVPB16 (envelope of the HIV-1 pseudovirus) (HIV-1)
[3] = target: SVPB14 (envelope of the HIV-1 pseudovirus) (HIV-1)
[4] = target: SF162 (envelope of the HIV-1 pseudovirus) (HIV-1)
[5] = target: SVPB5 (envelope of the HIV-1 pseudovirus) (HIV-1)
[6] = target: HIV2 (envelope of the indicator virus, without sCD4) (HIV-2)
[7] = target: SVPB17 (envelope of the HIV-1 pseudovirus) (HIV-1)
[8] = target: JRFL (envelope of the HIV-1 pseudovirus) (HIV-1)
[9] = target: BaL.01 (envelope of the HIV-1 pseudovirus) (HIV-1)
[10] = target: SVPB12 (envelope of the HIV-1 pseudovirus) (HIV-1)
[11] = target: MuLV (envelope of the control pseudovirus) (MuLV)

Row | Substance | IC50 (ug/ml) neutralization [1] [µg/mL] | IC50 (ug/ml) neutralization [2] [µg/mL] | IC50 (ug/ml) neutralization [3] [µg/mL] | IC50 (ug/ml) neutralization [4] [µg/mL] | IC50 (ug/ml) neutralization [5] [µg/mL] | IC50 (ug/ml) neutralization [6] [µg/mL] | IC50 (ug/ml) neutralization [7] [µg/mL] | IC50 (ug/ml) neutralization [8] [µg/mL] | IC50 (ug/ml) neutralization [9] [µg/mL] | IC50 (ug/ml) neutralization [10] [µg/mL] | IC50 (ug/ml) neutralization [11] [µg/mL]
1 | CD4bs mAb b12 (antibody) | 1.2 | 12 | 0.3 | < 0.1 | 18 | > 30 | > 30 | < 0.1 | 0.2 | > 30 | > 30
2 | HIV-1 CD4i mAb 19e (antibody) | > 30 | > 30 | > 30 | > 30 | > 30 | > 30 | > 30 | > 30 | > 30 | > 30 | > 30
3 | broadly neutralizing mAb 2G12 (antibody) | 12 | > 25 | > 25 | 0.5 | 8 | > 25 | > 25 | 0.3 | 1 | 0.3 | > 25
4 | HIV-1 CD4i mAb 17b (antibody) | > 30 | > 30 | > 30 | 30 | > 30 | 10 | > 30 | > 30 | > 30 | > 30 | > 30
5 | E51 (antibody) | > 30 | > 30 | > 30 | 45 | > 30 | > 30 | > 30 | > 30 | > 30 | > 30 | > 30
